Like-named read-outs stand apart in the source and are kept apart here.
Key:
Experiment in all cases: co-IP
EGFP–Rab11-FIP1B [1] = target: T1, EGFP–Rab11-FIP1B (UniProt Q6WKZ4-4 1-1283)
T1 sequence (looked up): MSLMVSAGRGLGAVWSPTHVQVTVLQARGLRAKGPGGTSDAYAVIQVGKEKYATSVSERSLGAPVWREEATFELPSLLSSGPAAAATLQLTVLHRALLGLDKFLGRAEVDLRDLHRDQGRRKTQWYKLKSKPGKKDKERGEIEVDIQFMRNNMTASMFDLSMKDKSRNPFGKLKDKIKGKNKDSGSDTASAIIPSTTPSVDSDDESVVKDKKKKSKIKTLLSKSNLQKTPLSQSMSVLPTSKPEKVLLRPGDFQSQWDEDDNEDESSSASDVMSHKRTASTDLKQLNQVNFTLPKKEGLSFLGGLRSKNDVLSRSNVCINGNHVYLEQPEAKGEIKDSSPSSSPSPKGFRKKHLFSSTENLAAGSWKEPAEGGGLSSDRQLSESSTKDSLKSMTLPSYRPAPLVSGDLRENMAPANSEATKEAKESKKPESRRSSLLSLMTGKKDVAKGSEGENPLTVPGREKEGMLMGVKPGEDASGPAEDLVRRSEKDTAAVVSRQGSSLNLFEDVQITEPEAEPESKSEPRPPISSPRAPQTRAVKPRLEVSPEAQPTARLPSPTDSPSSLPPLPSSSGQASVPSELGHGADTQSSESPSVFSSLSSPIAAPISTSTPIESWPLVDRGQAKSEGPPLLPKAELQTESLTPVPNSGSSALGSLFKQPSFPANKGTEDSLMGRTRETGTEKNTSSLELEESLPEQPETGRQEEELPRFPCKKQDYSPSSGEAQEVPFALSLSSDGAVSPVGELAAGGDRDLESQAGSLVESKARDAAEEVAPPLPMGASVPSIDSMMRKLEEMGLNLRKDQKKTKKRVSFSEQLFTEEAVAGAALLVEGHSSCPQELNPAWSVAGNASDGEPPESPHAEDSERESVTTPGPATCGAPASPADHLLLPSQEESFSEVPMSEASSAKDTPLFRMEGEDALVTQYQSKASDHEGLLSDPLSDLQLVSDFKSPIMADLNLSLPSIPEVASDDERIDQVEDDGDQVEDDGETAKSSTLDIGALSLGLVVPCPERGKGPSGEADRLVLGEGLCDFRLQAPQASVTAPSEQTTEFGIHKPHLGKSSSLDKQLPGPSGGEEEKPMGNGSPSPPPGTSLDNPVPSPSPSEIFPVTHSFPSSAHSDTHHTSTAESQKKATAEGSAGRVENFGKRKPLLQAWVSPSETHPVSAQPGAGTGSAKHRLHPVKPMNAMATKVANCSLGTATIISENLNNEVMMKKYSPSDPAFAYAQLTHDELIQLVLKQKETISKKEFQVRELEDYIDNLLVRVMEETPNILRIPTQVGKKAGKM

EGFP–Rab11-FIP1A [2] = target: T2, EGFP–Rab11-FIP1A (UniProt Q6WKZ4-1 1-612)
T2 sequence (looked up): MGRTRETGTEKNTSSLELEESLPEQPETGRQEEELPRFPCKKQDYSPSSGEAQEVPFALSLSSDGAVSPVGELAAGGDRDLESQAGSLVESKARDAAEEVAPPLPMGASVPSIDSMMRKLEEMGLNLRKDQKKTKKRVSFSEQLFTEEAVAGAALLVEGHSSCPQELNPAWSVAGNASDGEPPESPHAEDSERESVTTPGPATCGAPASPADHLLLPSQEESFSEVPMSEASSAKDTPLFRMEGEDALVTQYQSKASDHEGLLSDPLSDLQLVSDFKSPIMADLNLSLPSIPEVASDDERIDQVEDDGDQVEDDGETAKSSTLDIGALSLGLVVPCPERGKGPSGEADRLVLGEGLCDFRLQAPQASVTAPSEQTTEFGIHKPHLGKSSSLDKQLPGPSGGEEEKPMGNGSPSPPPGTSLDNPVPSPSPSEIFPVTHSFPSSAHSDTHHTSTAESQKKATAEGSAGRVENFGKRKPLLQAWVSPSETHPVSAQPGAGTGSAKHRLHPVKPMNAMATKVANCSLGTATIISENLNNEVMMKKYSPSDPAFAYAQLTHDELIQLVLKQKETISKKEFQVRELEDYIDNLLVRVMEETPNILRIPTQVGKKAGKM

EGFP–Rab11-FIP1C [3] = target: T3, EGFP–Rab11-FIP1C (UniProt Q6WKZ4-3 1-649)
T3 sequence (looked up): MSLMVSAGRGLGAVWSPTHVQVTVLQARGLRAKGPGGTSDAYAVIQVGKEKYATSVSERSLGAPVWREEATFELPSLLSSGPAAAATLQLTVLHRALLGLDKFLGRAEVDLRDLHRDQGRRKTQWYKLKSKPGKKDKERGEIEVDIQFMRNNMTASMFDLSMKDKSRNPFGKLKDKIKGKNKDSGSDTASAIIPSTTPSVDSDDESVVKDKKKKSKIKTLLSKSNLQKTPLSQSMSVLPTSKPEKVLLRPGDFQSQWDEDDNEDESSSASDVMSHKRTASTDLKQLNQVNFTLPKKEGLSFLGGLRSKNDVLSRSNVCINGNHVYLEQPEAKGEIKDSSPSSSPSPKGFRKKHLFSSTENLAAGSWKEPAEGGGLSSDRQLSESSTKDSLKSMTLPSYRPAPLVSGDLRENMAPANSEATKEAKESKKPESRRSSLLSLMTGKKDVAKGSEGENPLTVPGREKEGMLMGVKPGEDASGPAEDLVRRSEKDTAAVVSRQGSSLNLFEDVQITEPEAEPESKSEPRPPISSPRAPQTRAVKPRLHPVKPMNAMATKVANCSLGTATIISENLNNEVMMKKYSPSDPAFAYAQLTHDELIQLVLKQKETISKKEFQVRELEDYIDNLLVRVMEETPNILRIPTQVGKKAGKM

EGFP–Rab11-FIP1B [4] = target: T1, EGFP–Rab11-FIP1B; remark: listed apart in the source
EGFP–Rab11-FIP1A [5] = target: T2, EGFP–Rab11-FIP1A; remark: listed apart in the source
EGFP–Rab11-FIP1C [6] = target: T3, EGFP–Rab11-FIP1C; remark: listed apart in the source

B1: mCherry–Rab11-FIP1A (natural protein, UniProt Q6WKZ4-1 1-612, looked up)
chain: MGRTRETGTEKNTSSLELEESLPEQPETGRQEEELPRFPCKKQDYSPSSGEAQEVPFALSLSSDGAVSPVGELAAGGDRDLESQAGSLVESKARDAAEEVAPPLPMGASVPSIDSMMRKLEEMGLNLRKDQKKTKKRVSFSEQLFTEEAVAGAALLVEGHSSCPQELNPAWSVAGNASDGEPPESPHAEDSERESVTTPGPATCGAPASPADHLLLPSQEESFSEVPMSEASSAKDTPLFRMEGEDALVTQYQSKASDHEGLLSDPLSDLQLVSDFKSPIMADLNLSLPSIPEVASDDERIDQVEDDGDQVEDDGETAKSSTLDIGALSLGLVVPCPERGKGPSGEADRLVLGEGLCDFRLQAPQASVTAPSEQTTEFGIHKPHLGKSSSLDKQLPGPSGGEEEKPMGNGSPSPPPGTSLDNPVPSPSPSEIFPVTHSFPSSAHSDTHHTSTAESQKKATAEGSAGRVENFGKRKPLLQAWVSPSETHPVSAQPGAGTGSAKHRLHPVKPMNAMATKVANCSLGTATIISENLNNEVMMKKYSPSDPAFAYAQLTHDELIQLVLKQKETISKKEFQVRELEDYIDNLLVRVMEETPNILRIPTQVGKKAGKM
B1 was tested, and the “percentage of total FIP1A recovered on the beads” value (shortened to “percentage”) (EGFP–Rab11-FIP1B [1]) was 13.4%, the “percentage” value (EGFP–Rab11-FIP1A [2]) was 18.6% and the “percentage” value (EGFP–Rab11-FIP1C [3]) was 11.6%. For the same binder, the “percentage” value (EGFP–Rab11-FIP1B [4]) was 11.8%, the “percentage” value (EGFP–Rab11-FIP1A [5]) was 15.2% and the “percentage” value (EGFP–Rab11-FIP1C [6]) was 15.2%.
